From publication PMC11272584 (Nature Metabolism, 2024)
Values belong to the molecule of their own block, whether it stands above or below them.

Tests used:
GIPR E461* = biological target: T1, GIPR E461* (Homo sapiens, UniProt P48546); assay: cAMP accumulation; type: cell-based
T1 construct: host or cells: HEK293
T1 sequence (P48546 22-460 limits assumed): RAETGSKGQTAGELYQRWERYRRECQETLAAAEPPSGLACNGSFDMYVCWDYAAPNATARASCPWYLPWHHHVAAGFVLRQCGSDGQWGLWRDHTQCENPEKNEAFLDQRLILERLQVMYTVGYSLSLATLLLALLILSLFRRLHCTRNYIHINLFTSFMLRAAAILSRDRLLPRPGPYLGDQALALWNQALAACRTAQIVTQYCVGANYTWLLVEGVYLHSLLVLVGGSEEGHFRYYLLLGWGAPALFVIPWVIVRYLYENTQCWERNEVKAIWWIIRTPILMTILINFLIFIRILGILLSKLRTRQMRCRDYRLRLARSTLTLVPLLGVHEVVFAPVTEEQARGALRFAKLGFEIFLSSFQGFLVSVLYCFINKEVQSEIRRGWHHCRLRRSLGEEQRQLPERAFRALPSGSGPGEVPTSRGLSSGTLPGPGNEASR
Method: (§1) HEK293 (CRL-1573, American Type Culture Collection) and β-arrestin 1/2 knockout cells, generated from HEK293A[48], were used for cAMP measurement, homologues competition binding and β-arrestin 2 recruitment. […] Both cell lines were cultured at 5% CO2 at 37 °C in Roswell Park Memorial Institute GlutaMAX-I supplemented with 10% fetal bovine serum, 180 units ml^−1 penicillin, and 45 g ml^−1 streptomycin. For the cAMP and binding experiments, cells were transfected with the calcium phosphate precipitation method[49].
(§2) cAMP production was measured with the DiscoverX Hithunter cAMP assay according to the manufacturer’s protocol (DiscoverX). […] On the day of the assay, the cells were washed twice with HEPES-buffered saline (HBS) and incubated with HBS and 1 mM 3-isobutyl-1-methylxanthine for 30 min at 37 °C. […] After the incubation, the assay medium was removed from the plate and the cells were washed with 30 µl PBS and treated with 40 µl enzyme donor–lysis buffer–chemiluminescent reagents and 10 µl cAMP antibodies for 60 min before 40 µl enzyme acceptor solution added. After a 3-h incubation on a shaking table in the dark, the cAMP accumulation was measured based on luminescence with a Perkin Elmer EnVision 2104 Multilabel Microplate Reader.

GIPR variants (groups) [1] = assay: cAMP accumulation; type: cell-based, human; conditions: for In vitro groups (cAMP): cAMP part of the in vitro group; for percentage_camp: cAMP production compared with WT; for Beta, cAMP: in vitro cAMP production per GIPR variant
Method: HEK293 (CRL-1573, American Type Culture Collection) and β-arrestin 1/2 knockout cells, generated from HEK293A[48], were used for cAMP measurement, homologues competition binding and β-arrestin 2 recruitment. For the internalization assay, endosomal signalling and basal receptor localization experiments, HEK293A (R70507, Thermo Fisher) cells were used. Both cell lines were cultured at 5% CO2 at 37 °C in Roswell Park Memorial Institute GlutaMAX-I supplemented with 10% fetal bovine serum, 180 units ml^−1 penicillin, and 45 g ml^−1 streptomycin. For the cAMP and binding experiments, cells were transfected with the calcium phosphate precipitation method[49]. The polyethyleneimine (PEI) transfection method was used for the β-arrestin 2 recruitment assays[50], endosomal signalling and basal receptor localization assays, while the lipofectamine transfection method was used for the internalization assay.
as §2
For cAMP accumulation, the data were fitted as a sigmoidal curve with a Hill slope of 1; for homologous competition binding, the data were fitted as a sigmoidal curve with a Hill slope of −1.

GIPR variants (groups) [2] = assay: β-arrestin 2 recruitment (BRET); conditions: for In vitro groups (β-arrestin): arr part of the in vitro group; for Beta, Barr: in vitro β-arrestin recruitment per GIPR variant;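 on all read-outs here: BRET readout of β-arrestin 2 recruitment in transiently transfected HEK293 cells expressing WT GIPR or a GIPR variant plus GPCR kinase 2, Rluc8 donor and citrine acceptor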
GIPR V399M = biological target: T2, GIPR V399M (Homo sapiens, UniProt P48546, V399M); assay: cAMP accumulation; type: cell-based
T2 construct: host or cells: HEK293
T2 sequence (P48546 22-466 V399M): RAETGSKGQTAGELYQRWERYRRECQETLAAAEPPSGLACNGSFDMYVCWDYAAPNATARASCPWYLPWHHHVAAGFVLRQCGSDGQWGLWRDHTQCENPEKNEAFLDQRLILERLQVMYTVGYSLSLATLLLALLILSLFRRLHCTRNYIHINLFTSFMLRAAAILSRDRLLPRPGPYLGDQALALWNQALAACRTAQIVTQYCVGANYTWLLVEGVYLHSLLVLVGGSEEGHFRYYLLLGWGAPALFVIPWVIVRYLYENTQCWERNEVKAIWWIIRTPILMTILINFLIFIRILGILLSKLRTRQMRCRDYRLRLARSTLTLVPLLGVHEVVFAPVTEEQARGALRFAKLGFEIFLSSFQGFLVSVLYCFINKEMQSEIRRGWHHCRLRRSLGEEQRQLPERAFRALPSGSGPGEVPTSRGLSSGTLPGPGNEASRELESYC
Method: (§3) HEK293 (CRL-1573, American Type Culture Collection) and β-arrestin 1/2 knockout cells, generated from HEK293A[48], were used for cAMP measurement, homologues competition binding and β-arrestin 2 recruitment. […] Both cell lines were cultured at 5% CO2 at 37 °C in Roswell Park Memorial Institute GlutaMAX-I supplemented with 10% fetal bovine serum, 180 units ml^−1 penicillin, and 45 g ml^−1 streptomycin. For the cAMP and binding experiments, cells were transfected with the calcium phosphate precipitation method[49]. The polyethyleneimine (PEI) transfection method was used for the β-arrestin 2 recruitment assays[50], endosomal signalling and basal receptor localization assays, while the lipofectamine transfection method was used for the internalization assay.
(§4) cAMP production was measured with the DiscoverX Hithunter cAMP assay according to the manufacturer’s protocol (DiscoverX). […] On the day of the assay, the cells were washed twice with HEPES-buffered saline (HBS) and incubated with HBS and 1 mM 3-isobutyl-1-methylxanthine for 30 min at 37 °C. […] After a 3-h incubation on a shaking table in the dark, the cAMP accumulation was measured based on luminescence with a Perkin Elmer EnVision 2104 Multilabel Microplate Reader. […]

GIPR E418K = biological target: T3, GIPR E418K (Homo sapiens, UniProt P48546, E418K); assay: cAMP accumulation; type: cell-based
T3 construct: host or cells: HEK293
T3 sequence (P48546 22-466 E418K): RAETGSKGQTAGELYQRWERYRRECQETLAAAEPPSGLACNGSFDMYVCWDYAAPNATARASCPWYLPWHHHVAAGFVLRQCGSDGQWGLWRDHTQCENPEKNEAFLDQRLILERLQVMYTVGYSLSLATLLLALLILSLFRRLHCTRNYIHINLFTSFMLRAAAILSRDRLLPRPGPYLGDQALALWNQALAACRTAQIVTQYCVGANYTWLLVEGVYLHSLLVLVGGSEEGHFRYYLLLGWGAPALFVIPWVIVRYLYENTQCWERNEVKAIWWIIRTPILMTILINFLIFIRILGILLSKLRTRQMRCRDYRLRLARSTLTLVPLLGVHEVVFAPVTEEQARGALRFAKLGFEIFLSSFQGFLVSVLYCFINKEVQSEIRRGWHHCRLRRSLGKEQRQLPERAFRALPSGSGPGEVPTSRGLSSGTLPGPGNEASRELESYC
Method: as §1, §2

GIPR G449A = biological target: T4, GIPR G449A (Homo sapiens, UniProt P48546, G449A); assay: cAMP accumulation; type: cell-based
T4 construct: host or cells: HEK293
T4 sequence (P48546 22-466 G449A): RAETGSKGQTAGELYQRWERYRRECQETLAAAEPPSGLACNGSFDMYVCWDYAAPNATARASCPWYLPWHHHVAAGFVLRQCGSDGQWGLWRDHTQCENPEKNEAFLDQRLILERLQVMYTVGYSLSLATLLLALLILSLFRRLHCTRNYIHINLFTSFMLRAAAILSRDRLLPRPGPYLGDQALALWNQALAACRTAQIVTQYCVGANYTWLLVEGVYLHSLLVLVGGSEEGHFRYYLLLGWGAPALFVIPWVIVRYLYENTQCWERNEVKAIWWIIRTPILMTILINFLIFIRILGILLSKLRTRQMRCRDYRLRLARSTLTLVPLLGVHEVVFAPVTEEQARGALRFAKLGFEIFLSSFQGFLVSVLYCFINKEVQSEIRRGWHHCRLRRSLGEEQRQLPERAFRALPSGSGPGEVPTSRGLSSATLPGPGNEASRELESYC
Method: as §1, §2

GIPR S415I = biological target: T5, GIPR S415I (Homo sapiens, UniProt P48546, S415I); assay: cAMP accumulation; type: cell-based
T5 construct: host or cells: HEK293
T5 sequence (P48546 22-466 S415I): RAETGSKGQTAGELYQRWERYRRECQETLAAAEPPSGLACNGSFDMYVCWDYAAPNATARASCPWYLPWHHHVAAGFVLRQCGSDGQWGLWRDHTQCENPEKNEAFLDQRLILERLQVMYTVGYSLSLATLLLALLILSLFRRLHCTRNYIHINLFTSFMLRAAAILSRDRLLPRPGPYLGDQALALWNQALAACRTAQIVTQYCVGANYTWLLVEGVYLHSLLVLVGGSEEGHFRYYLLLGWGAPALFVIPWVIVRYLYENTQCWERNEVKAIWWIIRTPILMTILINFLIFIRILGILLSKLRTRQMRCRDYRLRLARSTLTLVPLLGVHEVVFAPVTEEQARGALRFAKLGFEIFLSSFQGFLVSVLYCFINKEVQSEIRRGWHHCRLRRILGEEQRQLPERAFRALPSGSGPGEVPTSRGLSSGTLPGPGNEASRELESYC
Method: as §3, §4

B2: V399M (protein)
chain: RAETGSKGQTAGELYQRWERYRRECQETLAAAEPPSGLACNGSFDMYVCWDYAAPNATARASCPWYLPWHHHVAAGFVLRQCGSDGQWGLWRDHTQCENPEKNEAFLDQRLILERLQVMYTVGYSLSLATLLLALLILSLFRRLHCTRNYIHINLFTSFMLRAAAILSRDRLLPRPGPYLGDQALALWNQALAACRTAQIVTQYCVGANYTWLLVEGVYLHSLLVLVGGSEEGHFRYYLLLGWGAPALFVIPWVIVRYLYENTQCWERNEVKAIWWIIRTPILMTILINFLIFIRILGILLSKLRTRQMRCRDYRLRLARSTLTLVPLLGVHEVVFAPVTEEQARGALRFAKLGFEIFLSSFQGFLVSVLYCFINKEMQSEIRRGWHHCRLRRSLGEEQRQLPERAFRALPSGSGPGEVPTSRGLSSGTLPGPGNEASRELESYC
Efficacy at 100pmol (cAMP) (GIPR V399M): 0.2386
In vitro groups (cAMP) (GIPR variants (groups) [1]): LoF_camp
percentage_camp (GIPR variants (groups) [1]): <50% cAMP
Beta, cAMP (GIPR variants (groups) [1]): 0.2386
In vitro groups (β-arrestin) (GIPR variants (groups) [2]): LoF_arr
Beta, Barr (GIPR variants (groups) [2]): 0

B3: E418K (protein)
chain: RAETGSKGQTAGELYQRWERYRRECQETLAAAEPPSGLACNGSFDMYVCWDYAAPNATARASCPWYLPWHHHVAAGFVLRQCGSDGQWGLWRDHTQCENPEKNEAFLDQRLILERLQVMYTVGYSLSLATLLLALLILSLFRRLHCTRNYIHINLFTSFMLRAAAILSRDRLLPRPGPYLGDQALALWNQALAACRTAQIVTQYCVGANYTWLLVEGVYLHSLLVLVGGSEEGHFRYYLLLGWGAPALFVIPWVIVRYLYENTQCWERNEVKAIWWIIRTPILMTILINFLIFIRILGILLSKLRTRQMRCRDYRLRLARSTLTLVPLLGVHEVVFAPVTEEQARGALRFAKLGFEIFLSSFQGFLVSVLYCFINKEVQSEIRRGWHHCRLRRSLGKEQRQLPERAFRALPSGSGPGEVPTSRGLSSGTLPGPGNEASRELESYC
Efficacy at 100pmol (cAMP) (GIPR E418K): 0.7942
In vitro groups (cAMP) (GIPR variants (groups) [1]): WT-like_camp
percentage_camp (GIPR variants (groups) [1]): >50% cAMP
Beta, cAMP (GIPR variants (groups) [1]): 0.7942
In vitro groups (β-arrestin) (GIPR variants (groups) [2]): WT-like_arr
Beta, Barr (GIPR variants (groups) [2]): 0.9111

More lines, main results first:

Efficacy at 100pmol (cAMP) (GIPR E461*): 1.495
B1: E461* (protein)
chain: RAETGSKGQTAGELYQRWERYRRECQETLAAAEPPSGLACNGSFDMYVCWDYAAPNATARASCPWYLPWHHHVAAGFVLRQCGSDGQWGLWRDHTQCENPEKNEAFLDQRLILERLQVMYTVGYSLSLATLLLALLILSLFRRLHCTRNYIHINLFTSFMLRAAAILSRDRLLPRPGPYLGDQALALWNQALAACRTAQIVTQYCVGANYTWLLVEGVYLHSLLVLVGGSEEGHFRYYLLLGWGAPALFVIPWVIVRYLYENTQCWERNEVKAIWWIIRTPILMTILINFLIFIRILGILLSKLRTRQMRCRDYRLRLARSTLTLVPLLGVHEVVFAPVTEEQARGALRFAKLGFEIFLSSFQGFLVSVLYCFINKEVQSEIRRGWHHCRLRRSLGEEQRQLPERAFRALPSGSGPGEVPTSRGLSSGTLPGPGNEASR
In vitro groups (cAMP) (GIPR variants (groups) [1]): GoF_camp
percentage_camp (GIPR variants (groups) [1]): >50% cAMP
In vitro groups (β-arrestin) (GIPR variants (groups) [2]): WT-like_arr

Efficacy at 100pmol (cAMP) (GIPR G449A): 0.609
B4: G449A (protein)
chain: RAETGSKGQTAGELYQRWERYRRECQETLAAAEPPSGLACNGSFDMYVCWDYAAPNATARASCPWYLPWHHHVAAGFVLRQCGSDGQWGLWRDHTQCENPEKNEAFLDQRLILERLQVMYTVGYSLSLATLLLALLILSLFRRLHCTRNYIHINLFTSFMLRAAAILSRDRLLPRPGPYLGDQALALWNQALAACRTAQIVTQYCVGANYTWLLVEGVYLHSLLVLVGGSEEGHFRYYLLLGWGAPALFVIPWVIVRYLYENTQCWERNEVKAIWWIIRTPILMTILINFLIFIRILGILLSKLRTRQMRCRDYRLRLARSTLTLVPLLGVHEVVFAPVTEEQARGALRFAKLGFEIFLSSFQGFLVSVLYCFINKEVQSEIRRGWHHCRLRRSLGEEQRQLPERAFRALPSGSGPGEVPTSRGLSSATLPGPGNEASRELESYC
In vitro groups (cAMP) (GIPR variants (groups) [1]): WT-like_camp
percentage_camp (GIPR variants (groups) [1]): >50% cAMP
Beta, cAMP (GIPR variants (groups) [1]): 0.609
In vitro groups (β-arrestin) (GIPR variants (groups) [2]): WT-like_arr
Beta, Barr (GIPR variants (groups) [2]): 0.5256

Efficacy at 100pmol (cAMP) (GIPR S415I): 0.6572
B5: S415I (protein)
chain: RAETGSKGQTAGELYQRWERYRRECQETLAAAEPPSGLACNGSFDMYVCWDYAAPNATARASCPWYLPWHHHVAAGFVLRQCGSDGQWGLWRDHTQCENPEKNEAFLDQRLILERLQVMYTVGYSLSLATLLLALLILSLFRRLHCTRNYIHINLFTSFMLRAAAILSRDRLLPRPGPYLGDQALALWNQALAACRTAQIVTQYCVGANYTWLLVEGVYLHSLLVLVGGSEEGHFRYYLLLGWGAPALFVIPWVIVRYLYENTQCWERNEVKAIWWIIRTPILMTILINFLIFIRILGILLSKLRTRQMRCRDYRLRLARSTLTLVPLLGVHEVVFAPVTEEQARGALRFAKLGFEIFLSSFQGFLVSVLYCFINKEVQSEIRRGWHHCRLRRILGEEQRQLPERAFRALPSGSGPGEVPTSRGLSSGTLPGPGNEASRELESYC
In vitro groups (cAMP) (GIPR variants (groups) [1]): WT-like_camp
percentage_camp (GIPR variants (groups) [1]): >50% cAMP
Beta, cAMP (GIPR variants (groups) [1]): 0.6572
In vitro groups (β-arrestin) (GIPR variants (groups) [2]): WT-like_arr
Beta, Barr (GIPR variants (groups) [2]): 0.9285
